Usually Kd stands for the constant that tells how readily two partners part at equilibrium. A low value points to a tighter complex.

In assay [1] the target is HLA-A*02:01. The assay can be described thus: IEDB peptide-MHC binding, purified MHC/direct/fluorescence; filed as Kd, often an IC50 or EC50 that approximates it; ≥ and ≤ were set here for values at or beyond the usual limits of such assays. To be noted: source organism: Camelpox virus M-96.
Assay [2] deals with HLA-A*03:01. The assay is described as above. The note with it: source organism: Camelpox virus M-96.
In the next assay the target is HLA-A*11:01. Described as above. The note with it: source organism: Camelpox virus M-96.
In the next assay the target is HLA-A*31:01. The assay is described as above. The note with it: source organism: Camelpox virus M-96.
For assay [3], the target named is HLA-A*69:01. The description is as above. To be noted: source organism: Camelpox virus M-96.
Another assay concerns the target HLA-B*08:02. Described as above. The note with it: source organism: Variola virus.
Another assay has as its target HLA-B*40:01. The assay is described as above. To be noted: source organism: Camelpox virus M-96.
In a further assay the target is HLA-B*58:01. The assay is described as above. The note with it: source organism: Camelpox virus M-96.
In another assay the target is HLA-A*01:01. The assay can be described thus: IEDB peptide-MHC binding, purified MHC/competitive/fluorescence; filed as Kd, often an IC50 or EC50 that approximates it; ≥ and ≤ were set here for values at or beyond the usual limits of such assays. The note with it: source organism: Candida albicans SC5314.
The target in a further assay is HLA-A*02:06. Described as above. To be noted: source organism: Candida albicans SC5314.
The next assay addresses HLA-A*26:01. The description is as above.
For another assay, the target named is HLA-A*26:02. The description is as above. To be noted: source organism: Candida albicans SC5314.
A further assay has as its target HLA-A*26:03. The assay is described as above. To be noted: source organism: Candida albicans SC5314.
The target in another assay is HLA-A*68:02. The assay is described as above.
The target of the next assay is HLA-B*07:02. The description is as above. The note with it: source organism: Candida albicans SC5314.
A further assay addresses HLA-B*15:01. The assay is described as above.
A further assay concerns the target HLA-B*15:17. The description is as above.
A further assay has as its target HLA-B*18:01. The assay is described as above.
In another assay the target is HLA-B*27:05. The description is as above. The note with it: source organism: Candida albicans SC5314.
The next assay has as its target HLA-B*35:01. The assay is described as above. The note with it: source organism: Candida albicans SC5314.
For the next assay, the target named is HLA-B*48:01. Described as above. The note with it: source organism: Candida albicans SC5314.
A further assay addresses HLA-B*57:01. Described as above.
Assay [4] addresses HLA-A*02:01. The description is as above.
For another assay, the target named is HLA-A*02:03. The assay is described as above.
A further assay has as its target HLA-A*02:11. Described as above.
Another assay concerns the target HLA-A*02:12. Described as above.
The next assay addresses HLA-A*02:19. The assay is described as above.
Assay [5] has as its target HLA-A*03:01. Described as above.
The next assay has as its target HLA-A*23:01. The description is as above.
A further assay addresses HLA-A*24:03. The description is as above.
A further assay deals with HLA-A*29:02. The assay is described as above.
In assay [6] the target is HLA-A*69:01. The description is as above. The note with it: source organism: Bacillus anthracis str. Ames.
Another assay concerns the target HLA-B*27:03. Described as above.
In a further assay the target is HLA-B*39:01. Described as above.
Another assay addresses HLA-B*46:01. The assay is described as above.
The target in the next assay is HLA-B*51:01. Described as above.
The next assay deals with HLA-A*02:16. The description is as above. To be noted: source organism: Burkholderia vietnamiensis G4.
The mark [7] stands for this setting: source organism: Candida albicans SC5314.
[8] abbreviates: source organism: Bacillus anthracis str. Ames.
[9] abbreviates: source organism: Burkholderia vietnamiensis G4.

For RVYNNTARY, the Kd with HLA-A*02:01 [1] was not below 20 µM; in the assay with HLA-A*03:01 [2], 0.0507 µM; with HLA-A*11:01, 0.0225 µM; in the assay with HLA-A*31:01, 0.432 µM; with HLA-A*69:01 [3], not below 20 µM; with HLA-B*08:02, not below 20 µM. Also, the Kd with HLA-B*40:01 is not below 20 µM; with HLA-B*58:01, 0.016 µM; with HLA-A*01:01, not below 20 µM; with HLA-A*02:06, not below 20 µM; with HLA-A*26:01 (setting [7]), 0.0768 µM; in the assay with HLA-A*26:02, 0.528 µM. Also, the Kd in the assay with HLA-A*26:03 is not below 20 µM; with HLA-A*68:02 (setting [7]), not below 20 µM; with HLA-B*07:02, not below 20 µM; with HLA-B*15:01 (setting [7]), 0.187 µM; with HLA-B*15:17 (setting [7]), 0.0015 µM; with HLA-B*18:01 (setting [7]), not below 20 µM. In addition, the Kd with HLA-B*27:05 was not below 20 µM; with HLA-B*35:01 it was 0.159 µM; with HLA-B*48:01, not below 20 µM; with HLA-B*57:01 (setting [7]), 0.655 µM.
For the sequence VILYFMYRK, the Kd is not below 20 µM with HLA-A*02:01 [4] (setting [8]); not below 20 µM in the assay with HLA-A*02:03 (setting [8]); not below 20 µM with HLA-A*02:11 (setting [8]); not below 20 µM with HLA-A*02:12 (setting [8]); not below 20 µM with HLA-A*02:19 (setting [8]); 0.528 µM with HLA-A*03:01 [5] (setting [8]). Moreover, the Kd in the assay with HLA-A*23:01 (setting [8]), with HLA-A*24:03 (setting [8]), with HLA-A*26:01 (setting [8]), with HLA-A*29:02 (setting [8]), in the assay with HLA-A*68:02 (setting [8]) and in the assay with HLA-A*69:01 [6] was not below 20 µM each time. In addition, the dissociation constant Kd in the assay with HLA-B*15:01 (setting [8]), with HLA-B*15:17 (setting [8]), in the assay with HLA-B*18:01 (setting [8]), with HLA-B*27:03 (setting [8]), with HLA-B*39:01 (setting [8]) and with HLA-B*46:01 (setting [8]) was not below 20 µM throughout. For the same sequence, the Kd with HLA-B*51:01 (setting [8]) and with HLA-B*57:01 (setting [8]) was not below 20 µM throughout.
As to GVNDTEAHA, the Kd was not below 20 µM with HLA-A*02:01 [4] (setting [9]); not below 20 µM with HLA-A*02:03 (setting [9]); not below 20 µM with HLA-A*02:11 (setting [9]); not below 20 µM with HLA-A*02:12 (setting [9]); 0.365 µM with HLA-A*02:16; not below 20 µM with HLA-A*02:19 (setting [9]). In addition, the Kd with HLA-A*03:01 [5] (setting [9]), with HLA-A*23:01 (setting [9]), in the assay with HLA-A*24:03 (setting [9]), in the assay with HLA-A*26:01 (setting [9]), with HLA-A*29:02 (setting [9]) and in the assay with HLA-B*15:01 (setting [9]) was not below 20 µM each time. Further, the equilibrium dissociation constant (Kd) with HLA-B*18:01 (setting [9]), with HLA-B*27:03 (setting [9]), with HLA-B*39:01 (setting [9]), with HLA-B*46:01 (setting [9]), with HLA-B*51:01 (setting [9]) and with HLA-B*57:01 (setting [9]) was not below 20 µM each time.

Source of the values: the Immune Epitope Database (IEDB).
